Consider two molecules from US20060003407A1 (Biogen, published 2006).

In test [1] the target is T1, TACI on TACI+ expressing IM9 cell line (UniProt O14836 1-293, limits assumed).
T1 construct: whole, on cells; also called TACI+IM9 cells; TACI+ in IM9 cells
T1 sequence (looked up): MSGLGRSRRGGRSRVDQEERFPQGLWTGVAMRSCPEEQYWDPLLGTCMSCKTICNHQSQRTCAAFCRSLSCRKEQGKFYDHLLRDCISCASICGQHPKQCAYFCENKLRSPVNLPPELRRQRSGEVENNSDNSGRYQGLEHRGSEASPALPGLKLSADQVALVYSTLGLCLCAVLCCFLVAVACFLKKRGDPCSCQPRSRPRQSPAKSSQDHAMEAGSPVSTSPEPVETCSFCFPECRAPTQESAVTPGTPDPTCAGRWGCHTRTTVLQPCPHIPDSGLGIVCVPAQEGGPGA
In words: FACS on TACI+IM9 cells, 1 to 50 ng/mL ligand; the filing calls a major component of this binding nonspecific.

Test [2] has as its target T1, TACI on TACI+ expressing IM9 cell line. The experiment in a line: FACS on TACI+IM9 cells, 1 to 50 ng/mL ligand.

B1: truncated human APRIL ligand polypeptide encoded by amino acid residues 105-250 of SEQ ID NO: 6 (ligand, not shown: small tags and cut ends)
chain: AVLTQKQKKQHSVLHLVPINATSKDDSDVTEVMWQPALRRGRGLQAQGYGVRIQDAGVYLLYSQVLFQDVTFTMGQVVSREGQGRQETLFRCIRSMPSHPDRAYNSCYSAGVFHLHQGDILSVIIPRARAKLNLSPHGTFLGFVKL
notes: also called longer truncate of human APRIL ligand polypeptide
With B1, the binding result in test [1] is recorded as “binds”.

B2: FLAG-tagged truncated human APRIL ligand polypeptide (amino acids 115-250 of SEQ ID NO: 6) (ligand, not shown: small tags and cut ends)
chain: HSVLHLVPINATSKDDSDVTEVMWQPALRRGRGLQAQGYGVRIQDAGVYLLYSQVLFQDVTFTMGQVVSREGQGRQETLFRCIRSMPSHPDRAYNSCYSAGVFHLHQGDILSVIIPRARAKLNLSPHGTFLGFVKL
notes: Expressed in 293T cells; Tested both purified (anti-FLAG M1, SP Sepharose, Superdex 200) and unpurified in cell medium (SN); also called FLAGhuAPRIL purified; FLAGhuAPRIL SN
With B2, the binding result in test [2] was “binds”.
